In patent US20240279611A1, “EXOSOME PRODUCTION PROMOTING AGENT AND EXOSOME PRODUCTION PROMOTING METHOD” (FULLSTEM CO., LTD., priority 2021, published 2024):

Test system: adipose-derived mesenchymal stem cells (ADSC)
Assay: Amount of exosomes produced from ADSC, measured with Exo Counter (CD81 sandwich immunoassay) after excluding single factors
Type: cell-based
Conditions: 48-hour culture in DMEM F12 on nonwoven fabric; one factor excluded from the eight factors of Table 1, compared with all eight added; CD81 on exosome surface detected in culture supernatant; FIG. 1
Protocol: 4×10^4 adipose-derived mesenchymal stem cells (ADSC) were seeded in each well. A nonwoven fabric (3D, BioNOCII, CESCO BIOENGINEERING CO., LTD. in non-adhesive 24 well plate (PrimeSurface (registered trademark) Sumitomo Bakelite Co., Ltd.) was used for cell culture. A basal medium was 1.5 ml of 10% FBS/DMEM F12 (Sigma-Aldrich). The number of days of culture was 6. Starting from Day 2, 1.5 ml of medium was exchanged daily, and the amount of sugar consumed in the used culture medium was measured.
Next, in the cell culture for 48 hours on Day 7 and Day 8, DMEM F12 was used as a medium so as to collect exosomes. In this 48-hour culture, 10% ExoFBS (Funakoshi Co., Ltd.) was added in Test #1. ExoFBS is a product from which bovine-derived exosomes are removed; therefore, influence on an exosome research is reduced.
In Test #3 of the 48-hour culture, only factor A was excluded from the eight factors shown in Table 1, and the other factors were added. In Test #4 of the 48-hour culture, only factor B was excluded from the eight factors shown in Table 1, and the other factors were added. […]
The amount of exosomes produced from ADSC was measured with Exo Counter (Kenwood), using 50 μl each from 1.5 ml of the collected culture supernatant. […] CD81 on the exosome surface was detected to quantify the exosome amount.

B1: SCGF (protein, UniProt Q9Y240 22-323, looked up)
C-type lectin domain family …: ARGAEREWEGGWGGAQEEEREREALMLKHLQEALGLPAGRGDENPAGTVEGKEDWEMEEDQGEEEEEEATPTPSSGPSPSPTPEDIVTYILGRLAGLDAGLHQLHVRLHALDTRVVELTQGLRQLRNAAGDTRDAVQALQEAQGRAEREHGRLEGCLKGLRLGHKCFLLSRDFEAQAAAQARCTARGGSLAQPADRQQMEALTRYLRAALAPYNWPVWLGVHDRRAEGLYLFENGQRVSFFAWHRSPRPELGAQPSASPHPLSPDQPNGGTLENCVAQASDDGSWWDHDCQRRLYYVCEFPF
notes: 29-kDa protein having no N-type sugar chain, belongs to a C-type lectin family
effect of the factor on the amount of exosomes produced: inhibits the production of exosomes
